Tests used:
[1] = Release assay from PEG-DA fluid gel (trans-well, UV/Vis); assay type: physicochemical; conditions: 3% v/v PEG-DA fluid gel (Example 5.3, 500 rpm), into PBS at 37° C., 5 hrs
Experimental: • Active amounts: […] • Standard concentrations of active in PBS were prepared. • Standards were pipetted into a quartz cuvette (1 mm pathlength). • UV/Vis spectroscopy was used to measure absorbance between 200 and 700 nm wavelength. • Curves were plotted and used to determine standard curves which were used to determine concentrations. • 0.5 ml PBS was added to the well of a 24 well plate. • The PBS was incubated at 37° C. to equilibrate. • 0.1 ml of the fluid gel containing active was placed in a trans-well insert. • The trans-well insert was placed into a well containing PBS. • After a given time period the trans-well insert was removed and placed in a fresh well of PBS. • The release media was then removed and analysed using […] spectroscopy. Concentrations were derived from the standard curves and cumulative release plotted as a function of time.

fibrin gel = experiment: Matrix breakdown assay (fibrin gel); assay type: biochemical; conditions: fibrin gel 8.5 mg/ml, 60° C., images at various timepoints
Experimental: • Add proteinase K (10 mg) to PBS to make a total volume of 1 ml. • Mix well on a vortex mixer until dissolved.
• Add 0.9 ml of 3% v/v PEG-DA fluid gel prepared according to Example 5.3 to an Eppendorf. • To each gel add 0.1 ml of active in PBS. • Mix well using a vortex mixer. • Refrigerate for 24 hours before testing.
• 0.5 ml of fibrin gel (8.5 mg/ml) was formed in the wells of a 24 well plate. • 0.5 ml of PBS was added to each well. • 0.1 ml of fluid gel containing active was added to a trans-well insert and placed above the fibrin gel. • Samples were incubated at 60° C. to activate the proteinase K. • Images were taken at various timepoints and compared to (a) the control wells containing only fibrin gel+PBS; and (b) wells containing fibrin gel+proteinase k (no fluid gel carrier).

B1: proteinase K only: extracellular matrix remodelling agent, a proteinase (protein, UniProt P06873 106-384, looked up)
Proteinase K: AAQTNAPWGLARISSTSPGTSTYYYDESAGQGSCVYVIDTGIEASHPEFEGRAQMVKTYYYSSRDGNGHGTHCAGTVGSRTYGVAKKTQLFGVKVLDDNGSGQYSTIIAGMDFVASDKNNRNCPKGVVASLSLGGGYSSSVNSAAARLQSSGVMVAVAAGNNNADARNYSPASEPSVCTVGASDRYDRRSSFSNYGSVLDIFGPGTSILSTWIGGSTRSISGTSMATPHVAGLAAYLMTLGKTTAASACRYIADTANKGDLSNIPFGTVNLLAYNNYQA
[1]
  release of active agent from fluid gel: able to release
Fibrin gel
  fibrin gel break down: faster

Source: patent US20230218519A1, “FLUID GEL COMPOSITIONS” (The University of Birmingham, priority 2020, published 2023)
